Reference: US8492329B2, “Bioactive peptides and methods of using same” (Compugen Ltd., priority 2007, dated 2013)
No end group written: not given here.

What was measured:
LGR8 (RXFP2) = LGR8 (RXFP2) (Homo sapiens, UniProt Q8WXD0); assay: cAMP accumulation (Hit Hunter cAMP kit) in CHO-K1 cells transiently transfected with LGR8; format: cell-based; parameters: expressed in transfected cells; host or cells: CHO-K1 (transient); settings: for cAMP inhibition (Gi) effect: 1 uM, LGR8 CHO-K1 cells pre-treated with 10 uM Forskolin, FIG. 1; for change in cAMP, dose response, higher concentrations: concentrations higher than 100 nM (up to 10 uM); for change in cAMP, dose response, higher concentrations / change in cAMP, dose response, lower concentrations: 20 uM Forskolin, FIG. 2; for change in cAMP, dose response, lower concentrations: concentrations lower than 100 nM
Procedure: (§1) The ability of Peptides to affect cAMP concentration was examined in CHO-K1 cells transiently transfected with LGR7 (RXFP1) or LGR8 (RXFP2). The experiment measured cAMP concentration in response to the addition of the peptides.
(§2) LGR7 (RXFP1) or LGR8 (RXFP2) were transiently transfected into CHO-K1 cells as follows: Cells (12 million) were plated into T75 flasks on the day preceding transfection. Cells were transfected with a GPCR DNA and Gα16 using a lipid technique according to the manufacturer's recommendation. Cells were transfected for 5 hours, then re-plated into 96-well dishes (60,000 cells per well) and grown overnight. Transfected cells were plated into 24 wells of a 96-well plate. Cells were pre-treated with 0.5 mM IBMX (stimulation buffer) for 10 min at 37° C., then stimulated with either a positive control (Relaxin 2) or a candidate peptide (for Gs functional examination), followed by stimulation or a preincubation with 10 μM forskolin (for Gi functional examination). Following a 20 minutes stimulation by incubation with 1 μM of either positive control or the tested peptides, either with or without forskolin, intracellular cAMP was assayed using the Hit Hunter cAMP kit (DiscoveRx Corporation) according to the manufacturer's recommended protocol. Data was converted to nmol of cAMP by running a standard cAMP curve.
(§3) Relaxin was used as a positive control. cAMP level was elevated by pre-treatment with forskolin.
(§4) The transfected CHO-K1 cells were treated with 10 uM of Forskolin (Applied cell sciences (ACS)) for 10 minutes and then challenged with 1 uM of H2 Relaxin (ACS) (as a positive control), 1 uM of Peptide P59C13V (P59) (SEQ ID NO: 6), and Peptide P74C13V (P74) (SEQ ID NO: 10).
A dose response effect of P59C13V (P59) and P74C13V (P74) on CHO-K1 cells transiently transfected with LGR8 (RXFP2) was further examined (Method as above). CHO-K1 cells transiently transfected with LGR8 (RXFP2) were treated with 20 uM of Forskolin for 10 minutes and then challenged with either INSL3 (as a positive control), P59C13V (SEQ ID NO: 6) or P74C13V (P74) (SEQ ID NO: 10) at increasing concentrations from 1 nM to 10 uM.

LGR7 (RXFP1) = biological target: T1, LGR7 (RXFP1) (Homo sapiens, UniProt Q9HBX9); assay: cAMP accumulation (Hit Hunter cAMP kit) in CHO-K1 cells transiently transfected with LGR7; format: cell-based; parameters: expressed in transfected cells; host or cells: CHO-K1 (transient); settings: for cAMP inhibition (Gi) effect: 1 uM, LGR7 CHO-K1 cells pre-treated with 10 uM Forskolin, FIG. 1; for cAMP dose response with Forskolin / Gs (cAMP increase) dose response without Forskolin: LGR7; for cAMP dose response with Forskolin: 10 uM Forskolin, 1 nM to 10 uM, FIG. 4A; for Gs (cAMP increase) dose response without Forskolin: low concentrations 3-100 nM, FIG. 4B
T1 sequence (Q9HBX9 1-757): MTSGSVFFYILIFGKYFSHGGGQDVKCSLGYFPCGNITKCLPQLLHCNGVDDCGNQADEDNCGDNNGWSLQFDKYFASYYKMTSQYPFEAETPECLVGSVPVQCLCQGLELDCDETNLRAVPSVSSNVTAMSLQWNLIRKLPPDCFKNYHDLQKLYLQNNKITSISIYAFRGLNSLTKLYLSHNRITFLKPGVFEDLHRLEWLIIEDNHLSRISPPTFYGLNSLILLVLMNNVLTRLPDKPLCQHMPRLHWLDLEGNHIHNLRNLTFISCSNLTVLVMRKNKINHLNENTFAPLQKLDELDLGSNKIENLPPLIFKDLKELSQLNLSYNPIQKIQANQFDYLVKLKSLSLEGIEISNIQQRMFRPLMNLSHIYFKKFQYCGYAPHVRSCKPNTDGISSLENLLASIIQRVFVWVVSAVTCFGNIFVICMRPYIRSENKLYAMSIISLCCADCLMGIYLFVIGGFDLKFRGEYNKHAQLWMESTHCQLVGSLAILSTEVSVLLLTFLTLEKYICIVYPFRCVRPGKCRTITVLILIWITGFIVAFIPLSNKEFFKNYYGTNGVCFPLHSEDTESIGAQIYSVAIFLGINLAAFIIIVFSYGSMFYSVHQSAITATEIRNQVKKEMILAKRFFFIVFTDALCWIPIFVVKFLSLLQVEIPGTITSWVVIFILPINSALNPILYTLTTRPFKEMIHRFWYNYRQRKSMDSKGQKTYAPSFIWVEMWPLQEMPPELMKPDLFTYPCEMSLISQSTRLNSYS
Procedure: as §1, §2, §3, §4
CHO-K1 cells transiently transfected with LGR7 (RXFP1) were treated with 10 uM of Forskolin for 10 minutes and then challenged with either H2 Relaxin (as a positive control), P59C13V (P59) (SEQ ID NO: 6) or P74C13V (P74) (SEQ ID NO: 10) at increasing concentrations, from 1 nm to 10 uM (FIG. 4A) and from 3 nM to 100 nM (FIG. 4B). cAMP concentrations were determined at each point, as described above with (FIG. 4A) or without (FIG. 4B) the presence of Forskolin.

Chain of LGR8 (RXFP2) (Q8WXD0 whole entry): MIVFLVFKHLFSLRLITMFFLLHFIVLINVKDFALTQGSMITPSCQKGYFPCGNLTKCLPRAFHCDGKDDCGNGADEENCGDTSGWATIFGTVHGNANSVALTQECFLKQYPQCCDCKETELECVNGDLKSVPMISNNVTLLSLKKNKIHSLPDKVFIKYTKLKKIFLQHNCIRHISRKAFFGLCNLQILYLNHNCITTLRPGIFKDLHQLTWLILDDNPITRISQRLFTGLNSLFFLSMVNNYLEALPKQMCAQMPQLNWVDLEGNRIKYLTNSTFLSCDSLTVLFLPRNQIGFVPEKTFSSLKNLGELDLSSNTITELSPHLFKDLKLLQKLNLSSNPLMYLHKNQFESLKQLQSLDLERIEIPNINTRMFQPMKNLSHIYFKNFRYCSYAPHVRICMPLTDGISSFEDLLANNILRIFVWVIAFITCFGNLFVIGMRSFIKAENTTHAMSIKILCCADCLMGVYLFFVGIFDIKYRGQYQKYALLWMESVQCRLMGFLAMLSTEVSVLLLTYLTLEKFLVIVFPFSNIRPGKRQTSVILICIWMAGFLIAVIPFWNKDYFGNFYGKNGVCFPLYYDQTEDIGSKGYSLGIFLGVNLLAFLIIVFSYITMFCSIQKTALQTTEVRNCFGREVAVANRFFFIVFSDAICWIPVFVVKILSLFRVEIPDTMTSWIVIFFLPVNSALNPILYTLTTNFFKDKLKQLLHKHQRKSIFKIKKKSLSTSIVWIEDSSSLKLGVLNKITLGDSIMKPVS

cAMP inhibition (Gi) effect (LGR8 (RXFP2)) | cAMP inhibition (Gi) effect (LGR7 (RXFP1)) | cAMP dose response with Forskolin (LGR7 (RXFP1)) | Gs (cAMP increase) dose response without Forskolin (LGR7 (RXFP1)) | change in cAMP, dose response, higher concentrations (LGR8 (RXFP2)) | change in cAMP, dose response, lower concentrations (LGR8 (RXFP2)) | Substance
affected only the LGR7 (RXFP1) receptor | affected only the LGR7 (RXFP1) receptor | dose dependent decrease (Gi) effect | dose dependent increase in cAMP | – | – | H2 Relaxin: H2 Relaxin (ACS), positive control, known ligand of LGR7 (RXFP1) [reference compound]
clear cAMP inhibition (Gi) effect | clear cAMP inhibition (Gi) effect | bell-shaped curve | dose dependent increase in cAMP | slight increase (Gs effect) | slight decrease in cAMP | GQKGQVGPPGAAVRRAYAAFSV [Peptide P59C13V]
clear cAMP inhibition (Gi) effect | clear cAMP inhibition (Gi) effect | no significant effect | – | no effect | slight increase in cAMP | GQKGQVGPPGAAVRRAYAAFSVGRRAYAAFSV-OH [Peptide P74C13V]
